Assay results from patent US7407939 (CUREGENICS, dated 2008).
Where no end group is shown, it is not given here. Side-chain parts run from the residue outwards. [ ]: non-standard residue; d: D form. The star is where a group is joined. SO2‑IQ = 5-aminoethylsulfoneamide isoquinoline, O=S(=O)(NCCN*)c1cccc2cnccc12; S‑IQ = 5-mercaptoaminopropyl isoquinoline; hLeu = CC(C)CC[C@H](N)C(=O)O; GltNH2 = not defined here; Nle = CCCC[C@H](N)C(=O)O; Orn = NCCC[C@H](N)C(=O)O; bGaba = not defined here; Dab = NCC[C@H](N)C(=O)O; Nva = CCC[C@H](N)C(=O)O; Abu = CC[C@H](N)C(=O)O; Dap = NC[C@H](N)C(=O)O; Ph2 = not defined here; GlyNH2 = aminoglycine; Ava = NCCCCC(=O)O; βAla = NCCC(=O)O

B1: PTR 6102 (peptide)
peptide: RPRTE([βAla-S‑IQ])SF
B2: PTR 6132 (peptide)
peptide: RPR[Orn]E(SO2‑IQ)SF
B3: PTR 6104 (peptide)
peptide: RPRTE(S‑IQ)SF
B4: PTR 6130 (peptide)
peptide: RPRTD(SO2‑IQ)SF
B5: PTR 6152 (peptide)
peptide: RPR[Nva]E([βAla-SO2‑IQ])A[hLeu]
B6: PTR 6086 (peptide)
peptide: RPR[Nle]E([βAla-SO2‑IQ])SF
B7: PTR 6140 (peptide)
peptide: RPR[Nle]E([βAla-SO2‑IQ])[Dab]F
B8: PTR 6128 (peptide)
peptide: RPR[Nle]E(SO2‑IQ)SF
B9: PTR 6090 (peptide)
peptide: RPRTE([Ava-SO2‑IQ])SF
B10: PTR 6016 (peptide)
peptide: RPRTE(SO2‑IQ)SF
B11: PTR 6082 (peptide)
peptide: RPRTE([βAla-SO2‑IQ])SF
B12: PTR 6096 (peptide)
peptide: RPR[Nle]E([βAla-SO2‑IQ])S[Nle]
B13: PTR 6088 (peptide)
peptide: RPR[Orn]E([bGaba-SO2‑IQ])SF
modifications: reading uncertain
B14: TY 60002-50 (peptide)
peptide: RPRTSA[hLeu]
B15: 60006-11B (peptide)
peptide: RPR[Nva][GlyNH2][Dap][Ph2]
modifications: reading uncertain
B16: 60005-5 (peptide)
peptide: RPRTS[GlyNH2]F
B17: TY 60002-73 (peptide)
peptide: RPRTS[Abu][hLeu]
B18: 60006-16A (peptide)
peptide: RPR[Nva][GlyNH2][GltNH2][hLeu]
modifications: reading uncertain
B19: 60006-7B (peptide)
peptide: RPR[Nva][GlyNH2][Abu][hLeu]
B20: 60006-5A (peptide)
peptide: RPR[Nva][GlyNH2]A[hLeu]
B21: TY 60002-96 (peptide)
peptide: RPRTS[Dap][hLeu]
B22: TY 60002-61 (peptide)
peptide: RPRVS[Abu]F

target: protein kinase A, catalytic subunit; test: cell-based or functional assay

Row | IC50 PKA | Binder
1 | 100 nM | B1
2 | 12 nM | B2
3 | 100 nM | B3

target: protein kinase A, catalytic subunit; test: cell-based or functional assay; remark: another data set of the same source

Row | PKA IC50 | Binder
4 | 53 nM | B4
5 | 5000 nM | B5
6 | 100 nM | B1
7 | 500 nM | B6
8 | 195 nM | B7
9 | 100 nM | B8
10 | 600 nM | B9
11 | 100 nM | B10
12 | 12 nM | B2
13 | 200 nM | B11
14 | 100 nM | B3
15 | 200 nM | B12
16 | 1000 nM | B13

target: protein kinase A, catalytic subunit; test: cell-based or functional assay; remark: another data set of the same source

Row | % Inhibition PKA | Binder
17 | 2% | B14
18 | 20% | B15
19 | 40% | B16
20 | 8% | B17
21 | 21% | B18
22 | 24% | B19
23 | 10% | B20

target: protein kinase A, catalytic subunit; test: cell-based or functional assay; remark: another data set of the same source

Row | Activity PKA | Binder
24 | > 40 µM | B14
25 | > 40 µM | B21
26 | > 40 µM | B17
27 | > 40 µM | B22

target: protein kinase A, catalytic subunit; test: cell-based or functional assay; remark: another data set of the same source

Row | IC50 µM PKA | Binder
28 | 7.5 µM | B16
29 | 228 µM | B17
30 | 139 µM | B20
